Reference: patent US20230357414A1 (SYNTHEKINE, published 2023)

T1: extracellular domain of human IL12Rb2 (amino acids 24-622 of hIL12Rb2, UniProt Q99665) (human, UniProt Q99665 24-622)
T1 construct: also called hIL12Rb2 ECD; hIL12Rb2-ECD
T1 sequence: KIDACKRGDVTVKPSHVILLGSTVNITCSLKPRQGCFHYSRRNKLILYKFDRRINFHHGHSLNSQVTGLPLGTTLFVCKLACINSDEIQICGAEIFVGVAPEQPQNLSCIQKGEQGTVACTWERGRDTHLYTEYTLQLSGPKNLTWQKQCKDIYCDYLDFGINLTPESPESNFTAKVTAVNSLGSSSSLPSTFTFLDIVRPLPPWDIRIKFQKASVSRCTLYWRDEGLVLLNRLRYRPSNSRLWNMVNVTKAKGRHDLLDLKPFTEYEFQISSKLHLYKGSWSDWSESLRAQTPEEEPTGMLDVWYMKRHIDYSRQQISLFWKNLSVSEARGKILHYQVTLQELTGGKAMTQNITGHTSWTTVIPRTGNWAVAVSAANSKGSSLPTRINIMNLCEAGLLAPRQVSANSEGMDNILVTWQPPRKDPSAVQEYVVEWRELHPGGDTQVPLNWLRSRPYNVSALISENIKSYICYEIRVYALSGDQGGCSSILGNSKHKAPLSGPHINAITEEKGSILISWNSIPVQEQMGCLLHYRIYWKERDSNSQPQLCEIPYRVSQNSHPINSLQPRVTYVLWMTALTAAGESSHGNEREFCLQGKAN

T2: extracellular domain of mouse IL12Rb2 (614 amino acids, amino acids 24-637 of the mIL12Rb2 precursor, UniProt … (mouse, UniProt P97378 24-637))
T2 construct: also called mIL12Rb2 ECD; mIL12Rb2 ECD antigen
T2 sequence: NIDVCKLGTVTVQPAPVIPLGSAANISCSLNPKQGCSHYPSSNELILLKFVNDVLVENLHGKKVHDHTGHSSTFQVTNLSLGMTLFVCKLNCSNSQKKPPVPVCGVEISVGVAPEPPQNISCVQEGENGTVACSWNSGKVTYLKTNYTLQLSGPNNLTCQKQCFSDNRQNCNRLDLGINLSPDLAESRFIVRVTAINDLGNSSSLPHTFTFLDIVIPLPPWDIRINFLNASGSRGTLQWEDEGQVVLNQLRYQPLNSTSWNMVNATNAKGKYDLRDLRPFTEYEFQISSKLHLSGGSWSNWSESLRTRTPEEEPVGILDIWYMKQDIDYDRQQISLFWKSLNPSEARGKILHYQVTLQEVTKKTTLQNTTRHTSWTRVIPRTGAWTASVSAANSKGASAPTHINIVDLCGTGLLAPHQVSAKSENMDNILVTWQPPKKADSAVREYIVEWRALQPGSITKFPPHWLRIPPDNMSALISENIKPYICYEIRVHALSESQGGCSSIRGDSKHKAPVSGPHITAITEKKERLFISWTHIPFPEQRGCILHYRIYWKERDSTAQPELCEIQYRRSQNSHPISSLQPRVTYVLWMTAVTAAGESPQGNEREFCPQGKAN


Biological target: T1, extracellular domain of human IL12Rb2 …
Test: periplasmic extract ELISA on antigen-coated plate; positive if A450 at least threefold over PBS-coated control
Experimental: (§1) Upon completion of the biopanning of Example 3, three 96-well plates of individual phage clones were isolated in order to perform periplasmic extract ELISA (PE-ELISA) on IL12Rb2 coated plates to identify positive VHH binders that selectively bound IL12Rb2. A 96-well plate was coated with IL12Rb2 and PBS under the same conditions. Next, wells were blocked at 37° C. for 1 h. Then, 100 μl of extracted antibodies was added to each well and incubated for 1 h. Subsequently, 100 μl of anti-tag polyclonal antibody conjugated to HRP was added to each well and incubated at 37° C. for 1 h. Plates were developed with TMB substrate. The reaction was stopped by the addition of H2SO4. Absorbance at 450 nm was read on a microtiter plate reader. Antibodies with absorbance of the antigen-coated well at least threefold greater than PBS-coated control are VHHs that specifically bind to IL 12Rb2. Positive clones were sequenced, and sequences analyzed to identify unique clonotypes

Binder | binding result
VHH1 (VHH, Camel VHH, tested as a periplasmic extract of a phage clone; also called anti-human IL12Rb2 VHH1; hIL12Rb2 VHH; not shown: HA/His tag encoded by the pMECS phagemid) VHH: QVQLQESGGGSVQAGGSLRLSCAASGFTVTRYCMGWLRQAPGKQREGVAIIERDGRTGYADSVKGRFTISKDNAKNTLYLQMNSLKPEDTAMYYCGAIEGSCRPDFGYRGQGTQVTVSS | binds
VHH11 (VHH, Camel VHH, tested as a periplasmic extract of a phage clone; also called anti-human IL12Rb2 VHH11; hIL12Rb2 VHH; not shown: HA/His tag encoded by the pMECS phagemid) VHH: QVQLQESGGGSVQAGGSLRLSCAASGFTVSRYCMGWLRQAPGKQREGVAIIERDGRTGYADSVKGRFTISKDDAKNTLYLQMNSLKPEDTAMYYCGAIEGSCRPDFGYRGQGTQVTVSS | binds
VHH17 (VHH, Camel VHH, tested as a periplasmic extract of a phage clone; also called anti-human IL12Rb2 VHH17; hIL12Rb2 VHH; not shown: HA/His tag encoded by the pMECS phagemid) VHH: QVQLQESGGGSVQAGGSLRLSCAASGLTISRYCMGWLRQAPGKQREGVAIIERDGRTGYADSVKGRFTISKDNAKNTLYLQMNSLKPEDTAMYYCGAIEGSCRPDFGYRGQGTQVTVSS | binds
VHH4 (VHH, Camel VHH, tested as a periplasmic extract of a phage clone; also called anti-human IL12Rb2 VHH4; hIL12Rb2 VHH; not shown: HA/His tag encoded by the pMECS phagemid) VHH: QVQLQESGGGSVQAGGSLRLSCVASGFTISRYCMGWLRQAPGKQREGVAIIERDGRTGYADSVKGRFTISKDNAKNTLYLQMNSLKPGDTAMYYCGAIEGSCRPDFGYRGQGTQVTVSS | binds

Biological target: T2, extracellular domain of mouse IL12Rb2 …
Test: as above
Experimental: as §1

Binder | binding result
mIL12Rb2 VHH6 (VHH, Camel VHH, tested as a periplasmic extract of a phage clone; also called anti-mouse IL12Rb2 VHH6; not shown: HA/His tag encoded by the pMECS phagemid) VHH: QVQLQESGGGSVQAGGSLRLSCAVSGKAYGGAWFRQAQGKGREGVAAIWIGTGTTFYADSVKGRFTISRDNAKNTVYLQMDGLKPEDTAVYYCAADDRPGYRDPLAPVSYNHWGQGTQVTVSS | binds
mIL12Rb2 VHH4 (VHH, Camel VHH, tested as a periplasmic extract of a phage clone; also called anti-mouse IL12Rb2 VHH4; not shown: HA/His tag encoded by the pMECS phagemid) VHH: QVQLQESGGGSVQVGGSLRLSCAVSGKLYGGAWFRQAQGKGREGVAAIWIGTGTTFYADSVKGRFTISRDNAKNTVYLQMDGLKPEDTALYYCAADDRPGYRDPLAPVSYNHWGQGTQVTVSS | binds
mIL12Rb2 VHH7 (VHH, Camel VHH, tested as a periplasmic extract of a phage clone; also called anti-mouse IL12Rb2 VHH7; not shown: HA/His tag encoded by the pMECS phagemid) VHH: QVQLQESGGGSVQAGGSLKLSCAVSGNPYGGAWFRQAQGKSREGVAAIWLGTGTTFYADSVKGRFTISRDNAKNTVYVQIDGLKPEDTAMYYCAADDRPGYRDPLAPVSYNHWGQGTQVTVSS | binds
mIL12Rb2 VHH8 (VHH, Camel VHH, tested as a periplasmic extract of a phage clone; also called anti-mouse IL12Rb2 VHH8; not shown: HA/His tag encoded by the pMECS phagemid) VHH: QVQLQESGGGSVQAGGSLRLSCVVSGKAYGGAWFRQAQGKSREGVAAIWIGTGTTFYADSVKGRFTISRDNAKNTVYLQMDGLKPEDTAMYYCAADDRPGYRDPLAPVSYNHWGQGTQVTVSS | binds
mIL12Rb2 VHH9 (VHH, Camel VHH, tested as a periplasmic extract of a phage clone; also called anti-mouse IL12Rb2 VHH9; not shown: HA/His tag encoded by the pMECS phagemid) VHH: QVQLQESGGGSVQAGGSLTLSCVVSGKAFGGAWFRQAQGKGREGVAAIWIGTGTTFYADSVKGRFTISRDNAKNTVYLQMDGLKPDDTAMYYCAADDRPGYRDPLAPVSYNHWGQGTQVTVSS | binds
mIL12Rb2 VHH2 (VHH, Camel VHH, tested as a periplasmic extract of a phage clone; also called anti-mouse IL12Rb2 VHH2; not shown: HA/His tag encoded by the pMECS phagemid) VHH: QVQLQESGGGSVQAGGSLRLSCAASGVTYGSYYMAAWFRQAPGKEREGVASIYGGSDSTYYADSVLGRFTISQDNGKNTLYLQMNSLKPDDTAMYYCAAAPPGKWFLKRLEGHNYSYWGQGTQVTVSS | binds
mIL12Rb2 VHH1 (VHH, Camel VHH, tested as a periplasmic extract of a phage clone; also called anti-mouse IL12Rb2 VHH1; not shown: HA/His tag encoded by the pMECS phagemid) VHH: QVQLQESGGGSVQAGGSLRLSCAASGYTYSNRHMGWFRQAPGKEREGVAAIYTGGGSTYYADSVKDRFTISQDNAKNTLYLQMNSLTPEDTAMYYCAADLTRWYSGGWRDPRGYKYWGQGTQVTVS | binds
mIL12Rb2 VHH5 (VHH, Camel VHH, tested as a periplasmic extract of a phage clone; also called anti-mouse IL12Rb2 VHH5; not shown: HA/His tag encoded by the pMECS phagemid) VHH: QVQLQESGGGSVQAGGSLRLSCAASGITYRGVWMGWFRQAPGKEREGVATIYTGSGHTYYADSVKGRFTISQDNAKNTVYLQMNSLKPEDTAMYYCAARTVGGTFYTLAADSFNTWGQGTQVTVSS | binds
